# Assay results as given in the nanobody polyreactivity screen of Harvey et al. (2022).
# Test: yeast display, Sf9 membrane polyspecificity reagent, FACS + sequencing; frameworks hold sequencing errors
# Summary of the method: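 In a synthetic yeast display library (Saccharomyces cerevisiae BJ5465), nanobody expression was induced with galactose for 36–48 hours. FACS gates were set low and high (top ~1%) using anti-HA fluorescence for expression and streptavidin fluorescence for binding of the Sf9 membrane reagent. Each polyreactivity label is drawn from the gate of origin.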
row,Sequence,polyreactivity (PSR sort gate)
1,QVQLVESGGGLVQAGGSLRLSCAATGRTFEGYAMGWYRQAPGKERELVAAISNSGGSTYYADSVKGRFTISRDNAKNTVYLQMNSLKPEDTAVYDCAALSRIRRYGYWGQGTQVNVSS,high polyreactivity
2,QVQLVESGGGLVQAGGSLRLSCAATGRTFGFNDMGWYRKATGKEREFVAAINSGGNTYYADSVKGRFTISRDNAKNTVYLQMNSLKPEDTAVYECAVKRASRYYVRKEYYYWGQGTQVTVSS,high polyreactivity
3,QVQLVESGGGLVQAGGSLRLSCAATGRTFGSNAMGWYRQAPGKERELVAAISLRGGRTYYADSVKGRFTISRDTAKNTVYLQMNSLKPEDTAVYYCNAVHYLYGARSRLTYDYWGQGTQVTVSS,high polyreactivity
4,QVQLVESGGGLVQAGGSLRLSCAATGRTFTVNPMGWYIQAPGKERELVAAITGSGGSTYYADSVKGRFTISRDNGKNTVYLQMNSLKPEDTAGYYCAADVNWFRWWSGSVELDYWGQGTQVTVTS,low polyreactivity
5,QVQLVESGGGLVQAGGSLRLSCAATGRTFVTYAMGWYRQAPGKEREFVAAITWSTGTSTYYADSVKGRFTISRDNAKNTVFLQIHSLNQEDTAVDYCHADSQEWIWLYEGYDYWGQGTQVSVSS,low polyreactivity
6,QVQLVESGGGLVQAGGSLRLSCAATGRTLGGNAMGWYRLAPGKEREFVARISTRGVRTYYAYSVKGRFTISRDNAKNTVDLQLNSLNPEDTAVYYCAKQVSYGHIGSYPDRDSWGQGTQVTVSS,low polyreactivity
7,QVQLVESGGGLVQAGGSLRLSCAATGRTSTYYPMGWYRQAPGKERELVAAIRSGTITNYADSVKGRFTISRDNAKNTVYLQMNSLKPEDSAVYYCAAKYRYSTYHRGSFNYWGQGTQVTVSS,high polyreactivity
8,QVQLVESGGGLVQAGGSLRLSCAATGSIFARYAMGWYRQAPGKERELVAAIDQSAGSTYYADSVKGRFTISRDNAKNTVYLQMNSLKPEDTAVYYCNADFWYWWVNTYVGPGLGYWGQGTQVTVSS,high polyreactivity
9,QVQLVESGGGLVQAGGSLRLSCAATGSIFFDNAMGWYRQAPGHERELVAAITSSGGRTYYADSVKGRFTISRDNAKNTVYLQMNSLKPEDTAVYYCAASPKYTTGRYSGEYWGQGTQVTVSS,low polyreactivity
10,QVQLVESGGGLVQAGGSLRLSCAATGSIFFINAMGWYRQAPGKERELVAAITWDGGSTYYADSVKGRFTISRVNAKNTVYLQMNSLKPEDTAVYYCAAVADYYDFISPPLDYWGQGTQVNVSS,low polyreactivity
11,QVQLVESGGGLVQAGGSLRLSCAATGSIFNFYAMGWYRQAPGKERELVAAIDQNGGSTYYADSVKGRFTISRDNAKNTVYLQMNSLKPVDTAVYYCAKDHQSGRRTYTYRYDYWGQGTQVTVSS,low polyreactivity
12,QVQLVESGGGLVQAGGSLRLSCAATGSTFHNYAMGWYRQAPGKERELGAGISVRGGGTYYADSVKGRFTISRDNAKNTVYLQMNSLKPEDTAVYYFAKRSRYYYRYDYWGQGTQVTVSS,high polyreactivity
13,QVQLVESGGGLVQAGGSLRLSCAATGSTFIGYAMGWYRQAPGKETELVAAISEIGGSTYYADSVKGRFTISRDNAKNTVYLKMNSLKPEDTAVDYCAATEVYLYFWYGYEYWGQGTQVTVSS,low polyreactivity
14,QVQLVESGGGLVQAGGSLRLSCAATGSTLVPNAMGWYRQAPGKERELVAAITRGTITHYADSVKGRFTISRDNAKNTVYVQMNSLKPEDTAVYYCNADVSLDDYDYWGQGTQVTVSS,low polyreactivity
15,QVQLVESGGGLVQAGGSLRLSCAATGYIGGNAMGWYRQAPWKERELVATLSRSGGSTYYADSVKGRFTISRDNAKNTVYLQMNSLKPEDSAVYYCAAVSYGNYHWGMYYWGQGTQVTVSS,low polyreactivity
16,QVQLVESGGGLVQAGGSLRLSCAATGYTFYIYAMGWYRQARGKERELVASITSDGRTNYADSVKGRFTISRDNAKNTVYLQMNSLKPEDTAVYYCATVGKVHDRLVAMDYWGQGTQVTGSS,low polyreactivity
17,QVQLVESGGGLVQAGGSLRLSCAATRRTFYSYAMGWYRQAPGKESELLASITSTGSTYYADSVKGRFTISRDNAKNTVYLQMNSLKPEDTAVYYCAARRQPRYSQRSTYYYWGQGTQVTVSS,high polyreactivity
